According to patent US20230265151A1, “GIP/GLP1 CO-AGONIST COMPOUNDS” (priority 2020, published 2023):
*1 amine or outer side, *2 acyl side, *3 side chain or, on linkers, in order; H or OH if unused. Where no end group is shown, it is not given here. Side-chain parts run from the residue outwards. [ ]: non-standard residue; d: D form. The star is where a group is joined. Butanoyl(4-(4-tBuPh)) = CC(C)(C)c1ccc(CCCC(=O)*)cc1; γGlu = O=C(O)[C@H](CCC(=O)[*:2])N[*:1]; αMeY = C[C@](N)(Cc1ccc(O)cc1)C(=O)O; αMeF = C[C@](N)(Cc1ccccc1)C(=O)O; αMeL = CC(C)C[C@](C)(N)C(=O)O; Orn = NCCC[C@H](N)C(=O)O; AEEA = NCCOCCOCC(=O)O; Aib = CC(C)(N)C(=O)O

T1: human glucose-dependent insulinotropic polypeptide (GIP) receptor (human, UniProt P48546 22-466)
T1 sequence (looked up): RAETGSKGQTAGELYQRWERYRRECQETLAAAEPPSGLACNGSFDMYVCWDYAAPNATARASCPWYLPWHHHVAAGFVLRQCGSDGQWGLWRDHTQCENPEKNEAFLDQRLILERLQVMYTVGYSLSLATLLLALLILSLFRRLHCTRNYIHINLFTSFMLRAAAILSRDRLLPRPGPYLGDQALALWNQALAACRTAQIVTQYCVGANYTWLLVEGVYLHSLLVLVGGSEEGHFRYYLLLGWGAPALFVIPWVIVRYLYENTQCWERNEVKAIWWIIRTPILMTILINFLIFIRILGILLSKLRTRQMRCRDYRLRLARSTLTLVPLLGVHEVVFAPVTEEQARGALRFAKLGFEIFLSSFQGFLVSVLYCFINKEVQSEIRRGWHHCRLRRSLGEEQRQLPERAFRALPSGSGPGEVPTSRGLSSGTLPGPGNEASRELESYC

B1: Y-Aib-EGT-αMeF(2F)-TSD-4Pal-SI-αMeL-LD-Orn-K((2-[2-(2-Amino-ethoxy)-ethoxy]-acetyl)2-(γ-Glu)-CO-(CH2)12-CH3)AQ-Aib-EFI-(D-Glu)-αMeY-LIEGGK((2-[2-(2-Amino-ethoxy … (peptide)
peptide: YXEGTXTSDXSIXLDXKAQXEFIXXLIEGGKSSGAPPPS
modifications: Aib2, αMeF(2F)6, 4Pal10, αMeL13, Orn16, Aib20, D-Glu24, αMeY25; acylated K17, K31 (groups as in name); C-terminal amide
B2: Y-Aib-EGT-αMeF(2F)-TSD-4Pal-SI-αMeL-LD-Orn-K((2-[2-(2-Amino-ethoxy)-ethoxy]-acetyl)2-(10-(4-carboxyphenoxy)decanoyl))AQ-Aib-EFI-(D-Glu)-αMeY-LIEGGK((2-[2-(2-Ami … (peptide)
peptide: B1 peptide
modifications: Aib2, αMeF(2F)6, 4Pal10, αMeL13, Orn16, Aib20, D-Glu24, αMeY25; acylated K17, K31 (groups as in name); C-terminal amide
B3: Y-Aib-EGT-αMeF(2F)-TSD-4Pal-SI-αMeL-LD-Orn-K((2-[2-(2-Amino-ethoxy)-ethoxy]-acetyl)2-(γ-Glu)-CO-(CH2)14-CH3)AQ-Aib-EFI-(D-Glu)-αMeY-LIEGGK((2-[2-(2-Amino-ethoxy … (peptide)
peptide: B1 peptide
modifications: Aib2, αMeF(2F)6, 4Pal10, αMeL13, Orn16, Aib20, D-Glu24, αMeY25; acylated K17, K31 (groups as in name); C-terminal amide
B4: Y-Aib-EGT-αMeF(2F)-TSD-4Pal-SI-αMeL-LD-Orn-K((2-[2-(2-Amino-ethoxy)-ethoxy]-acetyl)2-(γ-Glu)-CO-(CH2)10-CH3)AQ-Aib-EFI-(D-Glu)-αMeY-LIEGGK((2-[2-(2-Amino-ethoxy … (peptide)
peptide: B1 peptide
modifications: Aib2, αMeF(2F)6, 4Pal10, αMeL13, Orn16, Aib20, D-Glu24, αMeY25; acylated K17, K31 (groups as in name); C-terminal amide
B5: Y-Aib-EGT-αMeF(2F)-TSD-4Pal-SI-αMeL-LD-Orn-K((2-[2-(2-Amino-ethoxy)-ethoxy]-acetyl)2-(γ-Glu)-CO-(CH2)10-CO2H)AQ-Aib-EFI-(D-Glu)-αMeY-LIEGGK((2-[2-(2-Amino-ethox … (peptide)
peptide: B1 peptide
modifications: Aib2, αMeF(2F)6, 4Pal10, αMeL13, Orn16, Aib20, D-Glu24, αMeY25; acylated K17, K31 (groups as in name); C-terminal amide
B6: Y-Aib-EGT-αMeF(2F)-TSD-4Pal-SI-αMeL-LD-Orn-K((2-[2-(2-Amino-ethoxy)-ethoxy]-acetyl)2-(γ-Glu)-(4-(4-iodophenyl)butanoyl))AQ-Aib-EFI-(D-Glu)-αMeY-LIEGGK((2-[2-(2- … (peptide)
peptide: B1 peptide
modifications: Aib2, αMeF(2F)6, 4Pal10, αMeL13, Orn16, Aib20, D-Glu24, αMeY25; acylated K17, K31 (groups as in name); C-terminal amide
B7: Y-Aib-EGT-αMeF(2F)-TSD-4Pal-SI-αMeL-LD-Orn-K((2-[2-(2-Amino-ethoxy)-ethoxy]-acetyl)-(γ-Glu)-CO-(CH2)12-CO2H)AQ-Aib-EFI-(D-Glu)-αMeY-LIEGGK((2-[2-(2-Amino-ethoxy … (peptide)
peptide: B1 peptide
modifications: Aib2, αMeF(2F)6, 4Pal10, αMeL13, Orn16, Aib20, D-Glu24, αMeY25; acylated K17, K31 (groups as in name); C-terminal amide
B8: Example 178 (peptide)
peptide: Y[Aib]EGT[αMeF]TSDV[Aib]I[αMeL]LD[Orn]K([AEEA-AEEA-γGlu-Butanoyl(4-(4-tBuPh))])AQ[Aib]EFI[dE][αMeY]LIEGGK([AEEA-AEEA-γGlu-Butanoyl(4-(4-tBuPh))])SSGAPPPS-NH2
modifications: N-terminus assumed
SMILES: CC[C@H](C)[C@H](NC(=O)[C@H](CC(C)C)NC(=O)[C@](C)(Cc1ccc(O)cc1)NC(=O)[C@@H](CCC(=O)O)NC(=O)[C@@H](NC(=O)[C@H](Cc1ccccc1)NC(=O)[C@H](CCC(=O)O)NC(=O)C(C)(C)NC(=O)[C@H](CCC(N)=O)NC(=O)[C@H](C)NC(=O)[C@H](CCCCNC(=O)COCCOCCNC(=O)COCCOCCNC(=O)CC[C@H](NC(=O)CCCc1ccc(C(C)(C)C)cc1)C(=O)O)NC(=O)[C@H](CCCN)NC(=O)[C@H](CC(=O)O)NC(=O)[C@H](CC(C)C)NC(=O)[C@](C)(CC(C)C)NC(=O)[C@@H](NC(=O)C(C)(C)NC(=O)[C@@H](NC(=O)[C@H](CC(=O)O)NC(=O)[C@H](CO)NC(=O)[C@@H](NC(=O)[C@](C)(Cc1ccccc1)NC(=O)[C@@H](NC(=O)CNC(=O)[C@H](CCC(=O)O)NC(=O)C(C)(C)NC(=O)[C@@H](N)Cc1ccc(O)cc1)[C@@H](C)O)[C@@H](C)O)C(C)C)[C@@H](C)CC)[C@@H](C)CC)C(=O)N[C@@H](CCC(=O)O)C(=O)NCC(=O)NCC(=O)N[C@@H](CCCCNC(=O)COCCOCCNC(=O)COCCOCCNC(=O)CC[C@H](NC(=O)CCCc1ccc(C(C)(C)C)cc1)C(=O)O)C(=O)N[C@@H](CO)C(=O)N[C@@H](CO)C(=O)NCC(=O)N[C@@H](C)C(=O)N1CCC[C@H]1C(=O)N1CCC[C@H]1C(=O)N1CCC[C@H]1C(=O)N[C@@H](CO)C(N)=O

Key:
Experiment in all cases: cell-based or functional assay
[1] = molecular target: human glucagon receptor (human, UniProt P47871 26-477)
[2] = molecular target: T1, human glucose-dependent insulinotropic …
[3] = molecular target: human glucagon-like peptide-1 (GLP-1) receptor (human, UniProt P43220 24-463)

Row | Binder | cAMP EC50 (1.0% HSA) [1] [µM] | further results
1 | B1 | > 9.95 | 
2 | B2 | > 9.95 | 
3 | B3 | > 9.95 | 
4 | B4 | > 9.95 | 
5 | B5 | > 9.95 | 
6 | B6 | > 9.95 | 
7 | B7 | > 9.95 | 
8 | B8 |  | cAMP EC50 [2]: 0.11 nM; cAMP Emax [2]: 105%; cAMP EC50 [3]: 0.22 nM
